Source: patent publication US20180194851A1 (Pfizer, published 2018)

Legend:
[1] = target: T1, Hu41BB N&E.3 (human, UniProt Q07011 18-255); assay: FACS, 100 nM antibody, transduced 300-19 cell pools
T1 construct: Human-to-dog mutant of the human 4-1BB extracellular domain, expressed on transduced 300-19 cells
T1 chain: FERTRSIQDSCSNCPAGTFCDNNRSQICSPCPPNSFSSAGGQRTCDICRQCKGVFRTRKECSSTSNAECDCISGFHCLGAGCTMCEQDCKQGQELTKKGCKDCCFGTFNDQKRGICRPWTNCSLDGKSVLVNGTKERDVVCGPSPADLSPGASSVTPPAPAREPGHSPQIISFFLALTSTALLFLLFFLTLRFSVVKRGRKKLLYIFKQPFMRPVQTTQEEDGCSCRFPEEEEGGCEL

[2] = target: T2, CD40 on 300.19 cells (UniProt P25942 21-277, limits assumed); assay: FACS on 300.19 cells expressing CD40
T2 construct: whole, on cells; also called TNFRSF5; 300.19 CD40
T2 sequence (P25942 21-277 limits assumed): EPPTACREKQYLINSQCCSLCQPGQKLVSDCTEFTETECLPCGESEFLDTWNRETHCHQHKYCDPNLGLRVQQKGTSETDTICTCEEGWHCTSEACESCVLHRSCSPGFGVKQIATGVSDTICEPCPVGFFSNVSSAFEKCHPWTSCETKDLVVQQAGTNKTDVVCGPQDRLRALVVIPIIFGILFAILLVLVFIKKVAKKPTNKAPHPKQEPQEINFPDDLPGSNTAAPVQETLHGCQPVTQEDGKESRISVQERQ

[3] = target: T3, OX-40 on 300.19 cells (UniProt P43489 29-277, limits assumed); assay: FACS on 300.19 cells expressing OX-40
T3 construct: whole, on cells; also called CD134; TNFRSF4
T3 sequence (looked up): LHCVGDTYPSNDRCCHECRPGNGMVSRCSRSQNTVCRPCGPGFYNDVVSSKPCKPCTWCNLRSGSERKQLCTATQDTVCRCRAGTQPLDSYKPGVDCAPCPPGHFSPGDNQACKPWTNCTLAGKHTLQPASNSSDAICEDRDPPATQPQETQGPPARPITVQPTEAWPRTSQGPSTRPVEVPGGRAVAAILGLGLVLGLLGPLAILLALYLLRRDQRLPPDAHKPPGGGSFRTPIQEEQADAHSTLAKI

[4] = target: T4, Hu41BB N&E.4 (human, UniProt Q07011 18-255); assay: FACS, 100 nM antibody, transduced 300-19 cell pools
T4 construct: Human-to-dog mutant of the human 4-1BB extracellular domain, expressed on transduced 300-19 cells
T4 chain: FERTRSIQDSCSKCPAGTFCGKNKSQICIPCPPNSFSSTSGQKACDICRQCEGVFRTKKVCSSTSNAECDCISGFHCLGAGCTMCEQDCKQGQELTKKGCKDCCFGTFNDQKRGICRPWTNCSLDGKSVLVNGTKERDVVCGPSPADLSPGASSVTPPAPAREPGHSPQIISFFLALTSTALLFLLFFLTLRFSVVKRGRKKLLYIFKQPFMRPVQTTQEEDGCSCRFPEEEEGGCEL

[5] = target: T5, human 4-1BB extracellular portion, amino acids 24-186 (Fc cleaved off with Factor Xa) (human, UniProt Q07011 24-186); assay: SPR (Biacore 3000), antibody amine-coupled, 4-1BB 24-186 as analyte, 25 C
T5 construct: Made from the R&D Systems 4-1BB/Fc chimera by Factor Xa cleavage; also called recombinant human 4-1BB; the 4-1BB

[6] = target: T6, Recombinant human 4-1BB/Fc Chimera (R&D Systems #838-4B) (human, UniProt Q07011 24-186); assay: ligand competition ELISA, 4-1BB_IgG1Fc to plate-bound 4-1BBL (competitor 4-1BBL)
T6 construct: Bought protein; also called Human 4-1BB IgG1Fc chimera; not shown: Factor Xa-cleavable junction, human IgG1 Fc and 6xHistidine tag of the bought chimera

[7] = target: T6, Recombinant human 4-1BB/Fc Chimera (R&D …); assay: ELISA on coated human 4-1BB IgG1Fc chimera
[8] = target: T7, human 4-1BB on cells (human, UniProt Q07011 18-255); assay: FACS on HEK293T cells expressing human 4-1BB, IgG1
T7 construct: Expressed on stably transfected HEK293/HEK293T cells, transduced 300-19 cells or PHA stimulated human PBMC; also called h41BB; hu4-1BB

[9] = target: T6, Recombinant human 4-1BB/Fc Chimera (R&D …); assay: ELISA on directly coated human 4-1BB/Fc, IgG1
[10] = target: T8, Hu41BB N&E.5 (human, UniProt Q07011 18-255); assay: FACS, 100 nM antibody, transduced 300-19 cell pools
T8 construct: Human-to-dog mutant of the human 4-1BB extracellular domain, expressed on transduced 300-19 cells; also called 4-1BB Mutant N&E.5
T8 chain: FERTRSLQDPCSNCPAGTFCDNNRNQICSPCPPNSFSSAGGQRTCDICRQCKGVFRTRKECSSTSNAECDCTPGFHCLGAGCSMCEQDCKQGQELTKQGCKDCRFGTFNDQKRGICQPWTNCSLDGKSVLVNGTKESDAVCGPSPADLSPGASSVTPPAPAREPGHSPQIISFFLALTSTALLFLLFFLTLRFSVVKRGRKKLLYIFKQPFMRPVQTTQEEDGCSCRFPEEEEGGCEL

[11] = target: T9, Hu41BB N&E.1 (human, UniProt Q07011 18-255); assay: as above
T9 construct: Human-to-dog mutant of the human 4-1BB extracellular domain, expressed on transduced 300-19 cells
T9 chain: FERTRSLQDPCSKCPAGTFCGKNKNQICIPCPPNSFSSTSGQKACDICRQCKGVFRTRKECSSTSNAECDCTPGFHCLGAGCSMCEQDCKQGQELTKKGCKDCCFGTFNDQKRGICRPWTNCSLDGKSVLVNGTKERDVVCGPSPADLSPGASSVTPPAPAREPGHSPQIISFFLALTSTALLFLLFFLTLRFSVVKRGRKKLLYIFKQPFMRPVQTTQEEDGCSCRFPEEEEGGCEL

[12] = target: T10, Hu41BB N&E (human, UniProt Q07011 18-255); assay: as above
T10 construct: Human-to-dog mutant of the human 4-1BB extracellular domain, expressed on transduced 300-19 cells
T10 chain: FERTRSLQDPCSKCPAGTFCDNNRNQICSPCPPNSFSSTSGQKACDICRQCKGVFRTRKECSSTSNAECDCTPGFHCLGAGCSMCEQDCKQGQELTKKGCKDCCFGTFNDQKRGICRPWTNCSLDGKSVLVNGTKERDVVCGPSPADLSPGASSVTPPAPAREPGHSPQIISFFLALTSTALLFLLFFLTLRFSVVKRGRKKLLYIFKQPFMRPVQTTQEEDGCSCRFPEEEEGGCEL

[13] = target: T11, Hu41BB N&E.6 (human, UniProt Q07011 18-255); assay: as above
T11 construct: Human-to-dog mutant of the human 4-1BB extracellular domain, expressed on transduced 300-19 cells
T11 chain: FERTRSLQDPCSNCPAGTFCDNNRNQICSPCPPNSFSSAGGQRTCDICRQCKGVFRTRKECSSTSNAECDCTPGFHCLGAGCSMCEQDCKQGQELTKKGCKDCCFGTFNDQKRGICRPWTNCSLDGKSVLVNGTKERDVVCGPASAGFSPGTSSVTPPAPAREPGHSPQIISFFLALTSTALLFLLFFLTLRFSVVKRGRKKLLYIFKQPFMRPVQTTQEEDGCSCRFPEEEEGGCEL

[14] = target: T7, human 4-1BB on cells; assay: FACS on transfected cells
[15] = target: T7, human 4-1BB on cells; assay: FACS on HEK293 cells expressing human 4-1BB
[16] = target: T6, Recombinant human 4-1BB/Fc Chimera (R&D …); assay: ELISA on directly coated human 4-1BB/Fc
[17] = target: T12, human 4-1BB (recombinant antigen, construct not stated) (human, UniProt Q07011 24-186); assay: SPR (Biacore 3000), Fab analyte on amine-coupled human 4-1BB
T12 construct: It may be the 4-1BB/Fc chimera; also called CD137/HUMAN 4-1BB; unlabeled human 4-1BB

B1: MOR-6032 (IgG1) (antibody, V domains shown)
VH: QVQLVQSGAEVKKPGSSVKVSCKASGGTFNSYAISWVRQAPGQGLEWMGGIIPGFGTANYAQKFQGRVTITADESTSTAYMELSSLRSEDTAVYYCARKNEEDGGFDHWGQGTLVTVSS
VL: DIELTQPPSVSVAPGQTARISCSGDNLGDYYASWYQQKPGQAPVLVIYDDSNRPSGIPERFSGSNSGNTATLTISGTQAEDEADYYCQTWDGTLHFVFGGGTKLTVL
notes: Human IgG1 format, lambda light chain; also called 6032_G1
binding result [1]: binds | binding result [2]: no binding (tested: 1000 nM) | binding result [3]: no binding (tested: 1000 nM)

B2: MOR-7483 (IgG1) (antibody, V domains shown)
VH: QVQLVQSGAEVKKPGESLKISCKGSGYSFSTYWISWVRQMPGKGLEWMGKIYPGDSYTNYSPSFQGQVTISADKSISTAYLQWSSLKASDTAMYYCARGYGIFDYWGQGTLVTVSS
VL: DIELTQPPSVSVAPGQTARISCSGDNIGDQYAHWYQQKPGQAPVVVIYQDKNRPSGIPERFSGSNSGNTATLTISGTQAEDEADYYCSTYTFVGFTTVFGGGTKLTVL
notes: Human IgG1 format, lambda light chain; also called 7483_G1
binding result [4]: binds | binding result [1]: binds | binding result [2]: no binding (tested: 1000 nM) | binding result [3]: no binding (tested: 1000 nM)

B3: MOR-7480 (IgG2) (antibody, V domains shown)
VH: QVQLVQSGAEVKKPGESLKISCKGSGYSFSTYWISWVRQMPGKGLEWMGKIYPGDSYTNYSPSFQGQVTISADKSISTAYLQWSSLKASDTAMYYCARGYGIFDYWGQGTLVTVSS
VL: DIELTQPPSVSVAPGQTARISCSGDNIGDQYAHWYQQKPGQAPVVVIYQDKNRPSGIPERFSGSNSGNTATLTISGTQAEDEADYYCATYTGFGSLAVFGGGTKLTVLG
Kd [5]: 570 pM | koff [5]: 0.00023 s⁻¹ | kon [5]: 450000 M⁻¹ s⁻¹ | t1/2 [5]: 50 min | % max inhibition [6]: 98% | IC50 [6]: 125 pM | EC50 [7]: 122 pM

B4: MOR-7480.2 (IgG1) (antibody, V domains shown)
VH: EVQLVQSGAEVKKPGESLRISCKGSGYSFSTYWISWVRQMPGKGLEWMGKIYPGDSYTNYSPSFQGQVTISADKSISTAYLQWSSLKASDTAMYYCARGYGIFDYWGQGTLVTVSS
VL: SYELTQPPSVSVSPGQTASITCSGDNIGDQYAHWYQQKPGQSPVVVIYQDKNRPSGIPERFSGSNSGNTATLTISGTQAMDEADYYCATYTGFGSLAVFGGGTKLTVL
notes: Human IgG1 format
binding result [4]: binds | binding result [1]: binds

B5: MOR-7483.1 (IgG1) (antibody, V domains shown)
VH: EVQLVQSGAEVKKPGESLRISCKGSGYSFSTYWISWVRQMPGKGLEWMGKIYPGDSYTNYSPSFQGQVTISADKSISTAYLQWSSLKASDTAMYYCARGYGIFDYWGQGTLVTVSS
VL: SYELTQPPSVSVSPGQTASITCSGDNIGDQYAHWYQQKPGQSPVLVIYQDKNRPSGIPERFSGSNSGNTATLTISGTQAMDEADYYCSTYTFVGFTTVFGGGTKLTVL
notes: Germlined version of MOR-7483, human IgG1 format
Kd [5]: 28000 pM | koff [5]: 0.022 s⁻¹ | kon [5]: 800000 M⁻¹ s⁻¹

B6: MOR-7483 (IgG2) (antibody, V domains shown)
VH: QVQLVQSGAEVKKPGESLKISCKGSGYSFSTYWISWVRQMPGKGLEWMGKIYPGDSYTNYSPSFQGQVTISADKSISTAYLQWSSLKASDTAMYYCARGYGIFDYWGQGTLVTVSS
VL: DIELTQPPSVSVAPGQTARISCSGDNIGDQYAHWYQQKPGQAPVVVIYQDKNRPSGIPERFSGSNSGNTATLTISGTQAEDEADYYCSTYTFVGFTTVFGGGTKLTVLG
notes: also called 7483_G2
binding result [4]: binds | binding result [1]: binds

B7: MOR-7361 (IgG1) (antibody, V domains shown)
VH: QVQLVESGGGLVQPGGSLRLSCAASGFTFSDYYMHWVRQAPGKGLEWVSVISGSGSNTYYADSVKGRFTISRDNSKNTLYLQMNSLRAEDTAVYYCARLYAQFEGDFWGQGTLVTVSS
VL: DIELTQPPSVSVAPGQTARISCSGDNIGSKYVSWYQQKPGQAPVLVIYSDSERPSGIPERFSGSNSGNTATLTISGTQAEDEADYYCQSWDGSISRVFGGGTKLTVL
notes: Human IgG1 format, lambda light chain; also called 7361_G1
EC50 [8]: 800 pM | EC50 [9]: 300 pM | binding result [10]: binds | binding result [11]: binds | binding result [12]: binds | binding result [13]: binds | binding result [2]: no binding (tested: 1000 nM) | % max inhibition [6]: 100% | IC50 [6]: 172 pM | fold selectivity for 4-1BB versus OX-40 and CD40 [14]: ≥ 100 fold | EC50 [7]: 91 pM | binding result [3]: no binding (tested: 1000 nM)

B8: Fab-7361 (Fab, V domains shown)
VH: QVQLVESGGGLVQPGGSLRLSCAASGFTFSDYYMHWVRQAPGKGLEWVSVISGSGSNTYYADSVKGRFTISRDNSKNTLYLQMNSLRAEDTAVYYCARLYAQFEGDFWGQGTLVTVSS
VL: DIELTQPPSVSVAPGQTARISCSGDNIGSKYVSWYQQKPGQAPVLVIYSDSERPSGIPERFSGSNSGNTATLTISGTQAEDEADYYCQSWDGSISRVFGGGTKLTVL
EC50 [15]: 105000 pM | EC50 [16]: 600 pM | Kd [17]: 118000 pM
